Results: patent US7179464 (Kyowa Kirin, dated 2007)

T1: human IL-5R α chain expressed on cells (human, UniProt Q01344 21-420)
T1 construct: whole, on cells; also called hIL-5R α; CTLL-2(h5R)
T1 sequence (looked up): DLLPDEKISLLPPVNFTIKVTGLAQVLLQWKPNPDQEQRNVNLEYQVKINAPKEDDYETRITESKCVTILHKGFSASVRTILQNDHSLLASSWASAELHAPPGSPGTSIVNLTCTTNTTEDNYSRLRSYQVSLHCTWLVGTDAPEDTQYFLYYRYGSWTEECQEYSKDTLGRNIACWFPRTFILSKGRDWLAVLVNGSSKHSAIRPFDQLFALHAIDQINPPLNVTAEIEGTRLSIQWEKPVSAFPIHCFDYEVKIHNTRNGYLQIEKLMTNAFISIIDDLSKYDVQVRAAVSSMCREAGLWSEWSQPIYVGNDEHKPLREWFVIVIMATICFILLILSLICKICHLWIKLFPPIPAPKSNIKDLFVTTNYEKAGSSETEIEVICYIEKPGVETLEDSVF


Legend:
[1] = biological target: T1, human IL-5R α chain expressed on cells; experiment: immunocyte staining, flow cytometry on CTLL-2(h5R) cells
Method: (§1) Briefly, 5 ×10^5 cells obtained by transfecting a human IL-5R gene into CTLL-2 cells (ATCC TIB 214) [hereinafter referred to as "CTLL-2(h5R)"] [J. Exp. Med., 177, 1523 (1993)] or 5 ×10^5 CTLL-2 cells as a control were suspended in an immunocyte staining buffer (PBS containing 1% BSA, 0.02% EDTA and 0.05% sodium azide) and dispensed into a round bottom 96-well plate (100 μl/well). After centrifuging at 350×g for 1 minute at 4° C., the supernatant was discarded. Then, 50 μl of the immunocyte staining buffer containing 10 μg/ml of an hIL-5R α antibody were added to each well and reacted at 4° C. for 30 minutes. After the reaction, the immunocyte staining buffer was added (200 μl/well) and centrifuged at 350×g for 1 minute at 4° C. and then the supernatant was removed to wash the cells. The washing operation was further repeated twice. Thereafter, 50 μl of the immunocyte staining buffer containing FITC-labeled anti-mouse immunoglobulin antibody or FITC-labeled anti-human immunoglobulin antibody (both manufactured by Wako Pure Chemical Industries, Ltd.) diluted 30 folds with a staining buffer were added to each well and reacted at 4° C. for 30 minutes. After the reaction, a similar washing operation was repeated three times. Then, the cells were analyzed with a flow cytometer (Coulter).

[2] = biological target: T1, human IL-5R α chain expressed on cells; experiment: flow cytometry on CTLL-2(h5R) cells, antibody at 10 µg/ml
Method: as §1

| binding result [1] | binding result [2] | Binder |
| --- | --- | --- |
| binds | – | anti-human IL-5R α monoclonal antibody KM1257 (antibody, V domains shown, Mouse IgG1; also called hybridoma KM1257 (FERM BP-5133)) VH: EVQLVESGGDLVKPGGSLKLSCAASGFTFSDYGMAWIRQISDKRPEWVAAISSGGSYIHFPDSLKGRFTVSRDNAKNTLYLEMSGLKSEDTAMYYCARRGFYGNYRAMDYWGQGTSVTVSS VL: not shown |
| – | binds | anti-human IL-5R α chain human CDR-grafted antibody KM8399 (antibody, human IgG1, V domains shown, also called HV.3LV.0; pKANTEX1259HV3LV0) VH: EVQLVQSGAEVKKPGASVKVSCKASGYTFTSYVIHWVRQRPGQGLAWMGYINPYNDGTKYNERFKGKVTITSDRSTSTVYMELSSLRSEDTAVYLCGREGIRYYGLLGDYWGQGTLVTVSS VL: DIQMTQSPSSLSASVGDRVTITCGTSEDIINYLNWYQQKPGKAPKLLIYHTSRLQSGVPSRFSGSGSGTDFTLTISSLQPEDFATYYCQQGYTLPYTFGQGTKVEIK |
| – | binds | anti-human IL-5R α chain human CDR-grafted antibody KM9399 of human antibody IgG4 subclass (antibody, V domains shown, Same V regions as KM8399 (built from pKANTEX1259HV3LV0); also called pKANTEX1259HV3LV0γ4; transformant KM9399 (FERM BP-5647)) VH: EVQLVQSGAEVKKPGASVKVSCKASGYTFTSYVIHWVRQRPGQGLAWMGYINPYNDGTKYNERFKGKVTITSDRSTSTVYMELSSLRSEDTAVYLCGREGIRYYGLLGDYWGQGTLVTVSS VL: DIQMTQSPSSLSASVGDRVTITCGTSEDIINYLNWYQQKPGKAPKLLIYHTSRLQSGVPSRFSGSGSGTDFTLTISSLQPEDFATYYCQQGYTLPYTFGQGTKVEIK |
